# Literature values in US20220062372A1, “METHODS FOR TREATING DISEASE AND REDUCING DRUG-INDUCED LIVER INJURY IN PATIENT POPULATIONS” (Ten Peaks LLC, priority 2020, published 2022).
# Settings: background description of the marketed drug
molecule,measurement,value
"KEVZARA: IL-6 receptor antagonist (antibody, chains of the INN, looked up, V domains shown) VH: EVQLVESGGGLVQPGRSLRLSCAASRFTFDDYAMHWVRQAPGKGLEWVSGISWNSGRIGYADSVKGRFTISRDNAENSLFLQMNGLRAEDTALYYCAKGRDSFDIWGQGTMVTVSS VL: DIQMTQSPSSVSASVGDRVTITCRASQGISSWLAWYQQKPGKAPKLLIYGASSLESGVPSRFSGSGSGTDFTLTISSLQPEDFASYYCQQANSFPYTFGQGTKLEIK",hepatic adverse reactions reported in patients,associated with a higher incidence of transaminase elevations
